Data as given in patent publication US20260265354A1 (JIANGSU MABWELL HEALTH PHARMACEUTICAL R AND D, published 2026).
Residue numbers refer to the chain shown, from its start.

T1: Nectin-like-3 (UniProt Q8N3J6 25-367, limits assumed)
T1 construct: Bought recombinant protein; also called CADM2; IgSF4D
T1 sequence (looked up): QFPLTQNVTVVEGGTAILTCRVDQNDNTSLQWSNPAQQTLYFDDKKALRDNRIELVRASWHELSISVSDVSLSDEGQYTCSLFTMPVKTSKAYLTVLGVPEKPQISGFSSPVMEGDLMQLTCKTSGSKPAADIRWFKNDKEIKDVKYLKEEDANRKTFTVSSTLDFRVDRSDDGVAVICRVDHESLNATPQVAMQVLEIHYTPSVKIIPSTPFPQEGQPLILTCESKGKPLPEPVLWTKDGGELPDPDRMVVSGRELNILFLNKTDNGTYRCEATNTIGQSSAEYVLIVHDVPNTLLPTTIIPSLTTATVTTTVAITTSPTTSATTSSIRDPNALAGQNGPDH

T2: Nectin-2 (UniProt Q92692 32-360, limits assumed)
T2 construct: Bought recombinant protein; also called CD112; PVRL-2
T2 sequence (looked up): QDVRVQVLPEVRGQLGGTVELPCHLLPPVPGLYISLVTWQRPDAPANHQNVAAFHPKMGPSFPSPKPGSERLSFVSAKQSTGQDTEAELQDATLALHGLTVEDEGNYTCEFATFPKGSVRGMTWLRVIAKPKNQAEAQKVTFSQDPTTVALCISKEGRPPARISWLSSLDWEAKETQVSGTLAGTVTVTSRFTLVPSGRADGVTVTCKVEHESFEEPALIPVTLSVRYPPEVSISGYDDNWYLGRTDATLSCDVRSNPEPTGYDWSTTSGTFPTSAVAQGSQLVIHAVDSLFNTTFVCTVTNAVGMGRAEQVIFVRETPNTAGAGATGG

T3: Nectin-like-1 (UniProt Q8N126 25-330, limits assumed)
T3 construct: Bought recombinant protein; also called CADM3; IgSF4B
T3 sequence (looked up): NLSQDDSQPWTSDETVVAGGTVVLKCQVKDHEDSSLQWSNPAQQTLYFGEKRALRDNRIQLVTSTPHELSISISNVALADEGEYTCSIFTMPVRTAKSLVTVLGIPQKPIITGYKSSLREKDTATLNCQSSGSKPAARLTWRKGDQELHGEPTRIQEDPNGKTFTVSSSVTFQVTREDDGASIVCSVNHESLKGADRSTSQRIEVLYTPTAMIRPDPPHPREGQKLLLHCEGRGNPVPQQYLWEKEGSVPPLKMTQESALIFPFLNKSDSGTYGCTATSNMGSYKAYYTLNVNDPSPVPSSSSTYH

T4: recombinant human Nectin-4 protein (human, UniProt Q96NY8 32-349)
T4 construct: Prepared in-house (Jiangsu Mabwell) by transient transfection of CHO cells; also called PVRL-4; PRR-4
T4 sequence: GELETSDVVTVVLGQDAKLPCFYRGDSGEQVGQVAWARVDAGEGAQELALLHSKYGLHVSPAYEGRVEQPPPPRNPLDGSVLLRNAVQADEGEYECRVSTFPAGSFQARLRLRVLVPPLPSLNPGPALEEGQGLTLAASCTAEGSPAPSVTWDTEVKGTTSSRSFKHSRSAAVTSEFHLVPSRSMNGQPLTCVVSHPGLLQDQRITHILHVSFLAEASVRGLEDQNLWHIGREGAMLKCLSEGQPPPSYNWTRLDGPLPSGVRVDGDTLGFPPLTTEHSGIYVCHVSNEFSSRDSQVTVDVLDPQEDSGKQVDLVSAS

T5: Nectin-like-2 (UniProt Q9BY67 45-374, limits assumed)
T5 construct: Bought recombinant protein; also called CADM1; IgSF4
T5 sequence (looked up): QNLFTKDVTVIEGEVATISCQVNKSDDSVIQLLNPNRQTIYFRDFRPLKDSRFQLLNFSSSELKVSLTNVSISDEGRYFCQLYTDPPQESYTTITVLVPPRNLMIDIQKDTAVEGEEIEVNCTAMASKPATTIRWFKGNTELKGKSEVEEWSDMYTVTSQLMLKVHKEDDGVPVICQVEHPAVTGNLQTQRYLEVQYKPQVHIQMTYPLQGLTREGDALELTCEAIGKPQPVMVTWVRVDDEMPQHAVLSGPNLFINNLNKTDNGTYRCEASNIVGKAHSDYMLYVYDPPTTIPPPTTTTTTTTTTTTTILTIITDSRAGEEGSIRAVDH

T6: Nectin-1 (UniProt Q15223 31-334, limits assumed)
T6 construct: Bought recombinant protein; also called CD111; PVRL-1
T6 sequence (looked up): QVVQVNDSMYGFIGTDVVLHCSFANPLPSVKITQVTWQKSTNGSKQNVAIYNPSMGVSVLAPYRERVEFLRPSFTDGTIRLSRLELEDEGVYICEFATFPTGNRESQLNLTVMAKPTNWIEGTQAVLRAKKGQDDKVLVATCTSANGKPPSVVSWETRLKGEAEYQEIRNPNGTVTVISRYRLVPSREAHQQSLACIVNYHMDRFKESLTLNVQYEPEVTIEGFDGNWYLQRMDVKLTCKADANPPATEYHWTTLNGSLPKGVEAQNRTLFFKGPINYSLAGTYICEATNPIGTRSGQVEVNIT

B1: Antibody MM11 (antibody, mouse IgG1, kappa, V domains shown)
VH: DVQLQESGPGLVKPSQSLSLTCSVTGYSITSNFYWNWIRQFPGNRLEWMGYISYDGSNNYNPSLKNRISISRDTSKNQFFLKLNSVTTEDTATYYCVRADYWGQGTLVTVSA
VL: DTVMTQTPLSLPVSLGDQASISCRSSQSLESSDGHAYLNWYLQKPGQSPQLLIYRVSNRFSGVLHRFSGSGSGTDFTLKISRVEAEDLGVYFCLQFTHVPFTFGSGTKLEIKR
notes: Mouse monoclonal antibody from hybridoma; also called Nectin-4 mouse monoclonal antibody MM11; mouse antibody MM11
B2: Antibody R012 (antibody, V domains shown)
VH: SKSVEESGGRLVTPGTPLTLTCTVSGFSLSTYAMSWVRQAPGKGLEYIGIISGRGTTYYASWLKGRFTISKTSTTVDLKITSPTTEDTATYFCARDAGISDVYTGYFNLWGQGTLVTVSS
VL: QPVLAQLPSASAALGASAKLTCTLSSAHRTYTIAWYQQQQGEAPRYLMMLKSDGSYTKGTGVPDRFSGSSSGADRYLIISSVQAADEADYYCGADDSGGYVFGGGTQLTVTG
notes: Rabbit monoclonal antibody from phage display; also called Nectin-4 rabbit monoclonal antibody R012; rabbit antibody R012
B3: Antibody R036 (antibody, V domains shown)
VH: SQSVEESGGRLVTPGTPLTLTCTVSGFSLSSYAMSWVRQAPGKGLEYIGIIGGRGTTYYAIWAKGRFTISKTSTTVDLKITSPTTEDTATYFCARDAGTTYVGTTYVATGYFNLWGQGTLVTVSS
VL: B2 VL with A5T, L7P, R29K, M49I, K58R, A85D
notes: Rabbit monoclonal antibody from phage display; also called Nectin-4 rabbit monoclonal antibody R036; rabbit antibody R036

The binders below were run against T1, Nectin-like-3 (assay: ELISA, coated antigen, 0 ng/ml antibody (blank control)).
Procedure: (§1) Coating: Nectin-1, Nectin-2, Nectin-3, Nectin-4, Nectin-like-1, Nectin-like-2, Nectin-like-3, Nectin-like-4, and Nectin-like-5 were diluted to 5 μg/ml in coating buffer (carbonate buffer, pH 9.6) respectively. A 96-well plate was coat with 100 μl per well and incubated overnight at 2-8° C.;
(§2) Sample loading: The plate was taken out, patted dry, and washed twice with 200 μl/well of PBST, then patted dry. The Nectin-4 antibodies prepared in Example 1 (antibody MM11, antibody R012, and antibody R036) were diluted with 1% BSA/PBST to concentrations of 10 μg/ml, 1 μg/ml, 100 ng/ml, and 10 ng/ml, respectively. 1% BSA/PBST solution for dilution was set as a blank control. 100 μl per well was added to the 96-well plate, and incubated at room temperature for 2 hours;
(§3) Reaction termination and plate reading: 100 μl/well of 1 mol/L H3PO4 was added to terminate the reaction and the plated was read. The absorbances of wells in the plate at 450 nm with 650 nm as reference wavelength were read and recorded as OD_{450 nm-650 nm}.

Compared with B1, B2 is lower in OD detection value: 0.027 OD450 nm-650 nm for the first, 0.008 OD450 nm-650 nm for the second.

B3 gave an OD detection value of 0.007 OD450 nm-650 nm.

These binders were tested against T2, Nectin-2 in the same assay as above.
Procedure: as §1, §2, §3

Going from B1 to B2, the OD detection value rises from 0.007 OD450 nm-650 nm to 0.009 OD450 nm-650 nm.

B3 gave an OD detection value of 0.007 OD450 nm-650 nm.

What follows are binders tested against T3, Nectin-like-1 in the same assay as above.
Procedure: as §1, §2, §3

Compared with B1, B2 is higher in OD detection value: 0.007 OD450 nm-650 nm for the first, 0.008 OD450 nm-650 nm for the second.

B3 showed an OD detection value of 0.007 OD450 nm-650 nm.

Each binder was assayed against T4, recombinant human Nectin-4 protein in the same assay as above.
Procedure: as §1, §2, §3

B1 and B2 are the same in OD detection value: 0.008 OD450 nm-650 nm for the first, 0.008 OD450 nm-650 nm for the second.

B3 was tested, and the OD detection value was 0.007 OD450 nm-650 nm.

The binders below were run against T5, Nectin-like-2 (assay: ELISA, coated antigen, antibody at 1000 ng/ml).
Procedure: as §1, §2, §3

Compared with B1, B2 is lower in OD detection value: 0.008 OD450 nm-650 nm for the first, 0.007 OD450 nm-650 nm for the second.

In the case of B3, the OD detection value is reported as 0.006 OD450 nm-650 nm.

What follows are binders tested against T1, Nectin-like-3 (assay: ELISA, coated antigen, antibody at 1000 ng/ml).
Procedure: as §1, §2, §3

First: B1
Second: B2
The OD detection value of the first is higher: 0.029 OD450 nm-650 nm for the first, 0.008 OD450 nm-650 nm for the second.

B3 showed an OD detection value of 0.007 OD450 nm-650 nm.

What follows are binders tested against T6, Nectin-1 (assay: ELISA, coated antigen, antibody at 1000 ng/ml).
Procedure: as §1, §2, §3

B1 and B2 are the same in OD detection value: 0.007 OD450 nm-650 nm for the first, 0.007 OD450 nm-650 nm for the second.

Work on B3 yielded an OD detection value of 0.006 OD450 nm-650 nm.
